Assay results from patent US20130225503A1, “TEX14 PEPTIDES AS NOVEL ANTITUMOR AGENTS” (Baylor Licnensing Group, priority 2009, published 2013).
Entries after “also recorded” stand apart in the source; their conditions may differ.

Legend:
Format in all cases: cell-based
[1] = molecular target: T1, hinge region of human CEP55 (Homo sapiens, UniProt Q53EZ4); assay: Modified mammalian two-hybrid assay in HEK293T cells, TEX14 fragment binding to CEP55; conditions: transfected HEK293T cells; FIG. 5C, 5E, 5F, FIG. 7
T1 construct: expressed in transfected cells; host or cells: HEK293T
T1 sequence (Q53EZ4 157-236 limits assumed): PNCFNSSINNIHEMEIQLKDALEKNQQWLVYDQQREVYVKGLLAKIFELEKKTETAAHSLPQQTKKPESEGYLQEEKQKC
Text: (§1) A modified form of the CheckMate/Flexi vector mammalian two-hybrid system (Promega) was used to study the interactions of proteins in mammalian cells. A pGL4Cherry (mCherry/GAL4UAS/Hygro) vector was engineered from the pGL4.31 (luc2P/GAL4UAS/Hygro) vector by replacing the Luc2P firefly luciferase reporter sequence with the mCherry sequence. The pACT vector expresses a protein of interest, “X,” fused to a transcriptional activation domain (VP16-AD) and the pBIND vector expresses the other protein of interest, “Y,” fused to a DNA-binding domain (GAL4-BD) and Renilla luciferase by separate promoters. […]
(§2) Sequences encoding the truncated TEX14, CEP55, ALIX, or TSG101 fragments were cloned into the multiple cloning regions of the pACT and pBIND vectors. Some exemplary constructs used are summarized in FIGS. 6A and B. pACT (protein X), pBIND (protein Y), and pGL4Cherry (mCherry/GAL4UAS/Hygro) were transiently cotransfected into HEK293T cells using Fugene 6/HD transfection reagent, and the cells were examined 44 h later for red fluorescence by using an Axiovert 40 CFL microscope (Carl Zeiss). […] The cells were lysed by using Renilla luciferase assay reagent (Promega), and red fluorescence and Renilla luciferase were measured by using a Polar Star Omega microplate reader (BMG LabTech). […]

ALIX-CEP interaction = molecular target: T2, ALIX-CEP interaction (Homo sapiens, UniProt Q53EZ4); assay: Competition assay using the mammalian two-hybrid system, ALIX-CEP55 interaction; conditions: pcDNA3 overexpression in HEK293T cells; FIG. 6A, FIG. 7 left
T2 construct: expressed in transfected cells; host or cells: HEK293T
T2 sequence (Q53EZ4 157-236 limits assumed): T1 sequence (Q53EZ4 157-236 limits assumed)
Text: as §1, §2

TSG-CEP interaction = molecular target: T3, TSG-CEP interaction (Homo sapiens, UniProt Q53EZ4); assay: Competition assay using the mammalian two-hybrid system, TSG101-CEP55 interaction; conditions: pcDNA3 overexpression in HEK293T cells; FIG. 6B, FIG. 7 center
T3 construct: expressed in transfected cells; host or cells: HEK293T
T3 sequence (Q53EZ4 157-236 limits assumed): T1 sequence (Q53EZ4 157-236 limits assumed)
Text: as §1, §2

[2] = test system: full-length ALIX localization to the midbody; assay: Cotransfection with YFP full-length ALIX into HeLa cells, ALIX midbody localization and interconnected cells
Text: The mouse TEX14 open reading frame (ORF) sequence was ligated into the BamHI and SalI sites of the pCMV-tag2 vector (Stratagene), which contains an N-terminal FLAG tag sequence. The mouse CEP55 ORF was cloned from testis cDNA and subcloned into the EcoRI and SalI sites of the pcDNA3 (Invitrogen) vector containing an N-terminal MYC tag sequence. The truncated and mutant TEX14 (TX, AAAX3A) and the full-length ALIX sequences were ligated into the BamHI and NotI or the NotI and XbaI sites, respectively, of the pcDNA3 vectors, while mCherry or YFP sequences were subcloned into the KpnI and BamHI sites. Purified plasmid DNA was obtained by using a QIAprep spin miniprep kit (Qiagen), and all constructs were sequenced for integrity.
HEK293T or HeLa cells were maintained in Dulbecco's modified Eagle medium (Invitrogen) supplemented with 10% fetal calf serum (SAFC Biosciences), 1% L-glutamine (Invitrogen), and penicillinstreptomycin (Invitrogen) and grown on poly-D-lysine (Sigma)-coated coverslips in culture plates at 37 C° in a humidified 5% CO2 atmosphere. For immunoprecipitation and immunoblot experiments, cells were seeded at 50 to 80% confluence in […] (Corning) and transiently transfected using Fugene 6/HD transfection reagent (Roche) according to the manufacturer's instructions. […]

effect of overexpression on ALIX-CEP interaction (ALIX-CEP interaction): suppressed | effect of overexpression on TSG-CEP interaction (TSG-CEP interaction): suppressed
Substance: TX: GPPX3Y region of human TEX14, the 60 amino acids from 754 to 813 (LRNIEQILDEVEMKQKEQEERMSLWATSREFTNAYKLPLAVGPPSLNYIPPVLQLSGGQK; UniProt Q8IWB6 754-813, looked up, fragment)
binding to CEP55 hinge region (mCherry/Renilla luciferase or mCherry/YFP ratio) [1]: strongly binds; also recorded: typically stronger than the ALIX-CEP or TSG-CEP interactions | full-length ALIX localization to the midbody ([2]; HeLa cells cotransfected with pcDNA-mCherry-truncated TEX14 and pcDNA-YFP full-length ALIX): inhibits full-length ALIX localization to the midbody | interconnecting cells (intercellular bridges) in transfected cells ([2]; HeLa cells, FIG. 6G left): several interconnecting cells were visualized
